Experimental data from article doi:10.1101/2023.02.28.527262, “Tozorakimab (MEDI3506): a dual-pharmacology anti-IL-33 antibody that inhibits IL-33 signalling via ST2 and RAGE/EGFR to reduce inflammation and epithelial dysfunction” (bioRxiv, 2023).

Molecular target: T1, soluble serum stimulated 2 (sST2) (UniProt Q01638-2 19-328)
T1 construct: ST2 (IL1RL1), truncated soluble isoform that lacks the transmembrane and intracellular domains of ST2L; also called soluble ST2; IL1RL1; source: recombinant; expression and purification described previously [21]; receptor glycoproteins re-monomerized by Superdex 200 SEC
T1 sequence (looked up): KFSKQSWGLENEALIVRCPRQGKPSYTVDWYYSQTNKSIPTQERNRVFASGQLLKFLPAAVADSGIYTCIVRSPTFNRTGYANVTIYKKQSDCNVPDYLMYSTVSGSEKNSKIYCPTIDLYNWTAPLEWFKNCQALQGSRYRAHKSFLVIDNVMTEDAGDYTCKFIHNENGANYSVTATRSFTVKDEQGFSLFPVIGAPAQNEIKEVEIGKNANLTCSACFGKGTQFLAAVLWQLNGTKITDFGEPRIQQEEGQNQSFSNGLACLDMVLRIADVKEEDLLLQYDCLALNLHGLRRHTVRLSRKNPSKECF
Assay: KinExA; kinetic exclusion assay in free solution; IL-33^red titrated into fixed sST2 (30 pM and 2.0 pM); 1:1 binding model fitted to two datasets; association rate also by KinExA
Details: both partners purified

Kd: 0.09 pM
kon: 1.5e+08 M⁻¹ s⁻¹
B1: reduced interleukin-33 (IL-33^red), residues 112–270 (ligand, human, UniProt O95760 112-270, looked up)
chain: SITGISPITEYLASLSTYNDQSITFALEDESYEIYVEDLKKDEKKDKVLLSYYESQHPSNESGDGVDGKMLMVTLSPTKDFWLHANNKEHSVELHKCEKPLPDQAFFVLHNMHSNCVSFECKTDPGVFIGVKDNHLALIKVDSSENLCTENILFKLSET
notes: Interleukin-33, human, residues 112-270, reduced form (free cysteines); also called wild-type IL-33; source: recombinant; expression and purification described previously [21]
